Consider two molecules from article PMC6215446, “High-level expression and molecular characterization of a recombinant prolidase from Escherichia coli NovaBlue” (PeerJ, 2018).

Series [1] concerns C[C@H](N)C(=O)N1CCC[C@H]1C(=O)O. As to the kind of experiment: proline release, ninhydrin colorimetric assay; Lineweaver-Burk. Type of series: biochemical, Escherichia coli. The note with it: 0.1 mM Mn2+, 25 mM Tris-HCl pH 8.0, 60 °C, 10 min, substrate 0.2-14.2 mM.
Series [2] concerns the molecule itself. As to the kind of experiment: SEC; gel filtration on Superdex 200 HiLoad 16/60, 25 mM Tris-HCl buffer (pH 8.0) with 10 mM Mg(OAc)2 and 2 mM DTT; calibrated with thyroglobulin, aldolase, ovalbumin, ribonuclease A; apparent molecular mass of the native form. For orientation: In gel filtration, larger molecules generally elute earlier.

By Km is commonly meant the substrate concentration at which the rate is half of its maximum. By kcat is commonly meant the maximal rate divided by the concentration of active sites. EcPepQ (Escherichia coli K-12): in series [1], the Michaelis-Menten constant (Km) amounted to 8.8 ± 1.1 mM and the kcat was found to be 926.5 ± 2.0 s⁻¹.

B1: Escherichia coli NovaBlue prolidase (EcPepQ), His6-tagged (enzyme, UniProt P21165 1-443, looked up)
chain: MESLASLYKNHIATLQERTRDALARFKLDALLIHSGELFNVFLDDHPYPFKVNPQFKAWVPVTQVPNCWLLVDGVNKPKLWFYLPVDYWHNVEPLPTSFWTEDVEVIALPKADGIGSLLPAARGNIGYIGPVPERALQLGIEASNINPKGVIDYLHYYRSFKTEYELACMREAQKMAVNGHRAAEEAFRSGMSEFDINIAYLTATGHRDTDVPYSNIVALNEHAAVLHYTKLDHQAPEEMRSFLLDAGAEYNGYAADLTRTWSAKSDNDYAQLVKDVNDEQLALIATMKAGVSYVDYHIQFHQRIAKLLRKHQIITDMSEEAMVENDLTGPFMPHGIGHPLGLQVHDVAGFMQDDSGTHLAAPAKYPYLRCTRILQPGMVLTIEPGIYFIESLLAPWREGQFSKHFNWQKIEALKPFGGIRIEDNVVIHENNVENMTRDLKLA
notes: Prolidase (Xaa-Pro dipeptidase) PepQ of E. coli NovaBlue; residue number of 443 printed; Cloned BamHI/HindIII into pQE-30; also called Xaa-Pro dipeptidase; recombinant enzyme; source: E. coli M15 (pQE-EcPepQ), IPTG-induced, purified (Ni-NTA); not shown: His6, N-terminal, kept
As a reminder, the stoichiometry N is the number of molecules, sites or subunits per partner or assembly. In the case of B1, the “stoichiometry N” value in series [2] came out at 2.
